Literature values, collected in patent US20110110932A1, “COMBINATION TREATMENT FOR OCULAR DISEASES” (OPHTHOTECH CORP., priority 2009, published 2011).
Like-named read-outs stand apart in the source and are kept apart here.

Key:
[1] = test system: choroidal neovascularization (CNV); settings: rabbits, CNV induced by VEGF/bFGF pellets
[2] = test system: choroidal neovascularization (CNV); settings: cynomolgus monkeys, laser induced CNV
α5β1 integrin = α5β1 integrin (Homo sapiens, UniProt P05556+P08648)
Sequence of α5β1 integrin (P08648 42-894 limits assumed): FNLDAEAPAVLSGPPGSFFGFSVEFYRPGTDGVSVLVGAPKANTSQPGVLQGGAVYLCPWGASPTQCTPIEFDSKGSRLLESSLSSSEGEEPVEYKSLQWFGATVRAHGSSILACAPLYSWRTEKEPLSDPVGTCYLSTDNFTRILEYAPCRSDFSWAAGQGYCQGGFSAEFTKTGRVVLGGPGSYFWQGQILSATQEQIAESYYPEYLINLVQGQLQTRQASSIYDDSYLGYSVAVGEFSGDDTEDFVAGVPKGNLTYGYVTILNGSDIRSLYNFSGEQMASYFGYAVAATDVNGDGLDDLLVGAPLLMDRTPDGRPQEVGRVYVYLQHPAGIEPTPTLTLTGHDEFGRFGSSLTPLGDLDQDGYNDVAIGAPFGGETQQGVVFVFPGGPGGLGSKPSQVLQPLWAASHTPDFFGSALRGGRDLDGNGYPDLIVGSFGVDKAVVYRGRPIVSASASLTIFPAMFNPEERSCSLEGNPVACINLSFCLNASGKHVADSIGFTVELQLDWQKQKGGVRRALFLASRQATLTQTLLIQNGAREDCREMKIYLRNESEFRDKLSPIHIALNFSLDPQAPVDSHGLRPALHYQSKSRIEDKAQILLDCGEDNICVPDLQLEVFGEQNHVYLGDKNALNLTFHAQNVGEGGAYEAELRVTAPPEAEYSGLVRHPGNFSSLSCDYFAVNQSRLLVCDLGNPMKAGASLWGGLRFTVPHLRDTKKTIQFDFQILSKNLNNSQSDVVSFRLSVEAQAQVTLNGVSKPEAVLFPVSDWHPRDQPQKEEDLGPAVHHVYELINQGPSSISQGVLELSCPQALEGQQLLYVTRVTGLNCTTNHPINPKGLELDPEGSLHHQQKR
Sequence of α5β1 integrin (P08648 895-1049 limits assumed): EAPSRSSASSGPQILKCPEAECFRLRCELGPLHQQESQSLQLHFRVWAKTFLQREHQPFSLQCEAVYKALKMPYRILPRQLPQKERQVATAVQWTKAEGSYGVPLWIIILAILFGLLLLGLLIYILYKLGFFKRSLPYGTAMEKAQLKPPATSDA
Sequence of α5β1 integrin (P05556 21-798): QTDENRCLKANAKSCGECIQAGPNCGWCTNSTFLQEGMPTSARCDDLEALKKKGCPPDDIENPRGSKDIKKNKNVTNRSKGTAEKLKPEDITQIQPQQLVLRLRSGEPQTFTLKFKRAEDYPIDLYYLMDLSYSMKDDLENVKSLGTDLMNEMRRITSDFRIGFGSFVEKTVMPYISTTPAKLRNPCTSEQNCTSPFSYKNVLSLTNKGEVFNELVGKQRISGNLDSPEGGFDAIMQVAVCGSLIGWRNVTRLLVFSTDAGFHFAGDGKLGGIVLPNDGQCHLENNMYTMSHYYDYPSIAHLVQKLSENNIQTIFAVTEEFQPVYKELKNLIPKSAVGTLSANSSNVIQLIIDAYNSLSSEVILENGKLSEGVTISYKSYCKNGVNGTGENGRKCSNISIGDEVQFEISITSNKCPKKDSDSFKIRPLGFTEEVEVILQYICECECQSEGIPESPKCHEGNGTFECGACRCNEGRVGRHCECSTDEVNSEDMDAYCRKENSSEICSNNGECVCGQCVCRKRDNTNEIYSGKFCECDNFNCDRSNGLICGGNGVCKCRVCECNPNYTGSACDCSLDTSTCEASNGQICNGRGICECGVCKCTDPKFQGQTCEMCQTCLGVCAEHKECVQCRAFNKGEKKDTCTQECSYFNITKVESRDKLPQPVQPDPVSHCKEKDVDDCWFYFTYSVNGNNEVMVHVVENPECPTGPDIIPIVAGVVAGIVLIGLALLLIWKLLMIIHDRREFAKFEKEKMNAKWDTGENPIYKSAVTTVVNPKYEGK

B1: F200: Fab fragment of volociximab; heavy chain SEQ ID NO: 6, light chain same as M200 (antibody, chains of the INN, looked up, V domains shown)
VH: QVQLKESGPGLVAPSQSLSITCTISGFSLTDYGVHWVRQPPGKGLEWLVVIWSDGSSTYNSALKSRMTIRKDNSKSQVFLIMNSLQTDDSAMYYCARHGTYYGMTTTGDALDYWGQGTSVTVSS
VL: QIVLTQSPAIMSASLGERVTMTCTASSSVSSNYLHWYQQKPGSAPNLWIYSTSNLASGVPARFSGSGSGTSYSLTISSMEAEDAATYYCHQYLRSPPTFGGGTKLEIK
modifications: Fab
For B1, the anti-angiogenic activity [1] is given as “significant anti-angiogenic activity”, the anti-angiogenic activity [2] is given as “significant anti-angiogenic activity” and the “α5β1 integrin antagonistic activity” value (α5β1 integrin) is given as “shown to have α5β1 integrin antagonistic activity”.
